For assay [1], the target named is T1, panel of four distinct ZIKV strains (H/PF/2013; MR766, MRS-OPY and PV 10552). The assay is described as follows: cell-based or functional assay.
The target in assay [2] is T1, panel of four distinct ZIKV strains …. The assay is described as follows: cell-based or functional assay. This is another data set of the same source.

Like-named read-outs stand apart in the source and are kept apart here.

Here are results for one molecule from patent publication US20200317755A1.

B1: ZKA190 (antibody, V domains shown)
VH: QVQLVESGGGVVQPGRSLRLSCAASGFTFSKYGMHWVRQAPGKGLEWVAVISYEGSNKYYADSVKGRFTISRDNSKNTLYLQMNSLRAEDTAVYYCAKSGTQYYDTTGYEYRGLEYFGYWGQGTLVTVSS
VL: EIVLTQSPGTLSLSPGERATLSCRASQSVSSSYLAWYQQKRGQAPRLLIYDASSRATGIPDRFSGSGSGTDFTLTISRLEPEDFAVYYCQQYGRSRWTFGQGTKVEIK
As to B1, the figures for the IC50, neutralization of four ZIKV strains on Vero cells (flow cytometry) in assay [1] and in assay [2] were 0.004 to 0.05 nM and 0.6 to 8 ng/mL, respectively.
